Experimental data as given in PMC7470945, “DNA backbone interactions impact the sequence specificity of DNA sulfur-binding domains: revelations from structural analyses”.
Numbering of substitutions follows the chain as printed.

Assays:
Assay in all cases: fluorescence polarization; FP: 20 mM Tris-HCl pH 8.0, 50 mM NaCl, 5% glycerol, 1 mM DTT, 5 nM probe, room temperature; EMSA: 20 mM Tris-HCl pH 8.0, 100 mM NaCl, 5% glycerol, room temperature, protein 4x DNA
[1] = target: SBDSpr (SBD of SprMcrA) (Streptomyces pristinaespiralis, UniProt A0A0M4DML1 1-165); details: protein: recombinant, tags: N-terminal 6xHis (pET28a), blunt; for Kd: label: 5'-FAM on one strand (FP); for binding result: label: 5'-FAM on one strand
[2] = target: T1, SBDSco E156D (Streptomyces coelicolor, UniProt Q9L0M9 90-250, E156D); details: protein: recombinant; tags: 6xHis; label: 5'-FAM on one strand (FP); blunt
T1 sequence: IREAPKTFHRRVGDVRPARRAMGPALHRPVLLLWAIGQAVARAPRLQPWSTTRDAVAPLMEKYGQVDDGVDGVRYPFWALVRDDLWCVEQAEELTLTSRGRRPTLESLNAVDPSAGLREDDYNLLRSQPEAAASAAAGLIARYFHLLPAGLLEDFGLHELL

[3] = target: T2, SBDSco E156Q (Streptomyces coelicolor, UniProt Q9L0M9 90-250, E156Q); details: protein: recombinant; tags: 6xHis; label: 5'-FAM on one strand (FP); blunt
T2 sequence: T1 sequence with D67Q

[4] = target: T3, SBDSco E156R/D157R (Streptomyces coelicolor, UniProt Q9L0M9 90-250, E156R;D157R); details: protein: recombinant; tags: 6xHis; label: 5'-FAM on one strand (FP); blunt
T3 sequence: T1 sequence with D67R, D68R

[5] = target: T4, SBDSco E156K (Streptomyces coelicolor, UniProt Q9L0M9 90-250, E156K); details: protein: recombinant; tags: 6xHis; label: 5'-FAM on one strand (FP); blunt
T4 sequence: T1 sequence with D67K

[6] = target: T5, SBDSco E156R (Streptomyces coelicolor, UniProt Q9L0M9 90-250, E156R); details: protein: recombinant; tags: 6xHis; label: 5'-FAM on one strand (FP); blunt
T5 sequence: T1 sequence with D67R

[7] = target: T6, SBDSco (SBD of ScoMcrA) (Streptomyces coelicolor, UniProt Q9L0M9 90-250); details: protein: recombinant; tags: N-terminal 6xHis (pET28a); label: 5'-FAM on one strand (FP); blunt
T6 sequence: T1 sequence with D67E

[8] = target: T7, SBDSco E156L (Streptomyces coelicolor, UniProt Q9L0M9 90-250, E156L); details: protein: recombinant; tags: 6xHis; label: 5'-FAM on one strand (FP); blunt
T7 sequence: T1 sequence with D67L

B1: PT-GAAC-10 RP (hemi-PT) (dsDNA)
DNA 1: GGCGAACGTG
DNA 2: CACGTTCGCC
modifications: RP phosphorothioate between G4 and A5 of strand 1
- Kd [1]: 95 ± 25 nM
- Kd [2]: 846 ± 74 nM
- Kd [3]: 618 ± 43 nM
- Kd [4]: 183 ± 9 nM
- Kd [5]: 297 ± 19 nM
- Kd [6]: 267 ± 15 nM
- Kd [7]: 567 ± 37 nM
- Kd [8]: 499 ± 37 nM

B2: PT-GATC-10 SP (hemi-PT) (dsDNA)
DNA 1: GATGATCCTA
DNA 2: TAGGATCATC
modifications: SP phosphorothioate between G4 and A5 of strand 1
- binding result [1]: no binding

B3: PT-CCA-10 RP (hemi-PT) (dsDNA)
DNA 1: GAACCCAAGC
DNA 2: GCTTGGGTTC
modifications: RP phosphorothioate between C5 and C6 of strand 1
- binding result [1]: no binding

B4: PT-GATC-10 RP (hemi-PT) (dsDNA)
DNA 1: GATGATCCTA
DNA 2: TAGGATCATC
modifications: RP phosphorothioate between G4 and A5 of strand 1
- Kd [1]: 38 ± 8 nM
- Kd [2]: 1320 ± 99 nM
- Kd [3]: 1020 ± 49 nM
- Kd [4]: 192 ± 12 nM
- Kd [5]: 370 ± 14 nM
- Kd [6]: 346 ± 17 nM
- Kd [7]: 1090 ± 58 nM
- Kd [8]: 791 ± 42 nM

B5: PT-CCA-10 SP (hemi-PT) (dsDNA)
DNA 1: GAACCCAAGC
DNA 2: GCTTGGGTTC
modifications: SP phosphorothioate between C5 and C6 of strand 1
- binding result [1]: no binding
